Reference: the supplement of paper PMC9170038

Tested on: MS2 coat protein
Assay: apparent KD of MS2 coat protein; higher = weaker reporter binding
Details: Eterna round: R107
Procedure: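 RNA-MaP round R107: designed RNA switches with theophylline, tryptophan, arginine or FMN aptamers are transcribed on-chip within common flanks. They are titrated with SNAP-549-labelled MS2 coat protein in RNA-MaP buffer (100 mM Tris pH 7.5, 80 mM KCl, 4 mM MgCl2), without ligand or with the indicated ligand. Median apparent KD per design.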

[1] = input ligand: theophylline 20 uM
[2] = input ligand: tryptophan 2.4 mM
[3] = input ligand: theophylline 2 mM

Row | Sequence | apparent KD of MS2 coat protein (input ligand: arginine 13.2 mM) [nM] | apparent KD of MS2 coat protein [1] [nM] | apparent KD of MS2 coat protein [2] [nM] | apparent KD of MS2 coat protein (input ligand: none) [nM] | apparent KD of MS2 coat protein [3] [nM]
1 | AUGCAACAUGAGGAUCACCCAUGUGGUGAUACCAGUCGACAAGUAGACCCUUGGCAGCACAGCCGAUAUCGAGAGAGAUUUUUGG [theeternabot_sameState_MS2_Theo_A_23] | 64.4 | 476 | 824 |  | 
2 | UAUCCACAUGAGGAUCACCCAUGUUAGGAAGGAGCGGUGAAUGAACCAGGUAGGUCGCCUAGCUGAGGACUGUCGAUGGAUUCGU [Exclusion - Arginine A (Freestyle 17)] | 13.4 | 28.2 | 20.5 | 18.1 | 24.5
3 | AAGACAUGAGGAUCACCCAUGUCGUCAACACGAGGACCGGUACGGCCGCCACUCGCAUGCCAAUGAGCGCAUGCGGCCUGGGUAU [Exclusion Tryp A GF4] | 8.77 | 18 | 34.3 | 14.8 | 13.8
4 | AGAGUUAGACAAAAGUCUAGCUCACCAGAAGGAGCGUCCGAAAGGACAGGUAGGUCGCUGGUACAUGAGCAUCAGCCAUGUUCCU [ArgAS 15 #OpenEnded #AlternativeMS2] | 18.1 | 28 | 24.1 | 23.7 | 28.5
5 | UAUUAUCAGUCGGCCGCCACUGACACAUGAGGAUCACCCAUGUAAUUUGGGUUAUAUAUAAAUUACAGGACCGGGACAAAGGCUA [JR_ExcTryptoB_Sub013] | 114 | 318 |  |  | 396
6 | ACACAAUACAUGAGGAUCACCCAUGUAUAACGAGGACCGGUACGGCCGCCACUCGAAUACUGUAAUCCUCGGAAUAUUAUGUGAA [JR_ExcTryptA_Sub003] | 32.9 | 56.7 |  |  | 60.5
7 | UAAUAAGUACCGGUUCUCAGAUCCUCAUGUCGAGGACCGGUACGGCCGCCACUCGAAACAUGAGGAUCACCCAUGUAAUAAUAAU [#07 Exclusion Tryptophan A] | 23.5 | 67.1 |  |  | 54.5
8 | CGACGAGACCUGGAUACCAGCGACAUGAGGAUCACCCAUGUAUGUGGAUCAGCCAUGAUAUGCCCUUGGCAGCCACCGAGGUCGG [PPPMULLIN] | 7.81 | 20.8 | 12.3 | 11.6 | 31.7
9 | GUAAGACAUGAGGAUCACCCAUGUGUCGAUACCAGCCCUGCCUCUGGCCCUUGGCAGCGACUCGCACACCUCGCACUGCACAAGU [theeternabot_sameState_MS2_Theo_A_13] | 42.6 | 59.5 | 49 |  | 
10 | GCUGUAAGUGCAGAUACCAGCAUGUUAUAUUUCUAAUGACAUGAGGAUCACCCAUGUAAAUGCCCUUGGCAGCUGCACUUACAGC [SSTHB #6] | 15.6 | 21.4 | 18.7 |  | 
11 | AGAAUAUAGUCGGCCGCCACUCUACAUACAUGAGGAUCACCCAUGUUUACAUAGUGGAAACACAUGAGGACCGGGACAUAGGCAU [#16 Same State - Tryptophan B] | 8.17 | 13.2 | 9.98 | 12.2 | 11
12 | AGUAGCUGCCGAAGGAGCGCCGUGUUCCUACAUGAGGAUCACCCAUGUAGCGUUGGGUUACGGCAGGUAGGUCGCGGCAGAUAGG [#18 Same State - Arginine B] | 23.1 | 38.2 | 22.4 | 30 | 24.5
13 | ACCUAAGCCACAGAUACCAGAGUAAUAGGCCAAUUUCAAAACAUGAGGAUCACCCAUGUACUCCCUUGGCAGCUGCGAAUCGAAA [theeternabot_exclusion_MS2_Theo_B_30] | 11.1 | 13.6 | 10.3 |  | 
14 | UUGUGGCGCUCGGCCGCCACUCCGACAUGAGGAUCACCCAUGUUCUACAUGAGGAUCACCCAUGUGAGGACCGGGAGACACUUCC [Exclusion Tryptophan B GF13] | 53 | 109 |  |  | 116
15 | ACAAGGACAUGAGGAUCACCCAUGUGGGAAGGAGCGCAUAAAUAUGCAGGUAGGUCGCCCGGCGUGAUAUUUAAUAUUUUAAUAA [Exclusion - Arginine A] | 34 | 79.4 | 60.2 | 55.7 | 73.5
16 | CUAAUUAUAUCGGCCGCCACUUACUCAUGAGGUAACAACAUGAGGAUCACCCAUGUUUGAGGAUCAAGGACCGGGAUAUAAUUAG [AstrosSSTry#24] | 30.5 | 33 |  |  | 34.9
17 | GGUGGCGUGACGGAUACCAGCCACCACCGCAAGACCACAUGAGGAUCACCCAUGUUGGGUGGCCCUUGGCAGCUGUCGUGCGGCG [#1 Same State - Theophylline B Attempt #19 (HarryS)] | 15 | 331 | 110 | 213 | 475
18 | AGCAACUAGUCGGCCGCCACUCAUAUUACAUGAGGAUCACCCAUGUAUACAUGGUUGUUAUAUUUGAGGACCGGGACAGUUGCAU [JR_SSTryptoB_Sub018] | 59 | 69.9 |  |  | 75.7
19 | ACAUGAGGAUCACCCAUGUACAUGAGGGAAGGAGCGGUACAUGAGCCAGGUAGGUCGCCCAUGAGCAUCAGCCAUGUACAUCAGC [vv,mmullin] | 40.9 | 97.6 | 75.7 | 115 | 101
